Reference: publication doi:10.1101/2021.07.23.453482 (bioRxiv, 2021)

B1: BT3796^4S-Gal/GalNAc (enzyme)
chain: QTQKSAQTQRVDKRPNIILFMVDDMGWQDTSLPFWTQKTDYNKLYETPNMERLAKQGMMFTQAYASSISSPTRCSLITGTNAARHRVTNWTLQKNTKTDRKDKVLDVPDWNYNGVSQVPGTNNTFVGTSFVQLLKDSGYHTIHCGKAHFGAIDTPGEDPHHWGFEVNIAGHAAGGLASYLGEENYGHNKDGKPISLMAVPGLEKYWGTETFVTEALTLEAIKALNKAKKYNQPFYLYMSQYAIHVPLDKDKRFYDKYKKKGMTDHEAAYATLIEGMDKSLGDLMDWLEKSGEADNTIIIFMSDNGGLAAESYWRDGKLHTQNHPLNSGKGSTYEGGIREPMIVSWPGVVAPGSKCNDYLLIEDFYPTILEMAGIKKYKTVQPIDGISFMPLLKQTRNPSKGRSLFWNMPNNWGNDGPGINFNCAVRKGDWKLIYYYGTGKKELFNIPDDIGESNDLSAQHPDIVKRLSKELGTYLRKVDAQRPTVKATGKPCPWPDEIK
B2: BT3057^4S-Gal/GalNAc (enzyme, Bacteroides thetaiotaomicron, UniProt Q8A397 1-508, looked up)
chain: QERPNIIVFLVDDMGLMDTSVPFIADESGQPVRHPLNDWYHTPNMERLAKQGICFSTFYAQSVSSPSRASIMTGQNATRHGVTNWINAESNNRNPFGPPQWNWKGLRKDMPTMPRVLQQAGYKTIHVGKAHFGCMGSEGENPLNIGFDVNIAGSGIGHPGSYYGEWGYGHIKGQKIRAVPDLEKYHGTDTFLSEALTIEANREITKAVEEKRPFYLNMAHYAVHSPFQADKRFLSRYTDPDKNEQARAFATLIEGMDKSLGDIMDQLEKLGIAENTLILFLGDNGGDAPLGDERGYGSSAPLRGKKGTEFEGGMRVPFIAAWAKPEKKSKVQKNLPIEVGSMQTQLGTIMDIYPTVLSVAGCEVPQNYVIDGFDLKKQLSGKVDKKRPESFLMHFPHAHRGSYFTTYRMGDWKLIYYYLPETPKQPKALLYNLKDDPEERNELSAAHPDQCREMIREMSARLEKEGALYPVDKQGNELKPFVYF

Target: the molecule itself
Experiment: SEC-MALS

Protein | stoichiometry N
B1 | 2
B2 | 2
